This data set deals with the molecule itself. The data set can be described thus: SEC. Background: SEC sorts molecules by how far they enter the pores of the column.

B1: WT-Cp149 dimer (HBV core protein residues 1-149) (domain or fragment)
chain: MDIDPYKEFGATVELLSFLPSDFFPSVRDLLDTASALYREALESPEHCSPHHTALRQAILCWGELMTLATWVGVNLEDPASRDLVVSYVNTNMGLKFRQLLWFHISCLTFGRETVIEYLVSFGVWIRTPPAYRPPNAPILSTLPETTVV
notes: source: E. coli NiCo21(DE3), purified
Take B1: the binding result was “binds”.

For the origin of these results see article PMC12342251, “HBV capsid assembly modulators differentially modulate the assembly of wild-type and drug-resistant core protein chimeric nucleocapsids and empty capsids” (PLOS Pathogens, 2025).
